# Assay results from patent publication US20230138315A1 (JIANGSU HENGRUI MEDICINE, published 2023).
# T1: human ANGPTL3(17-170)-mFc (human)
# T1 construct: also called fusion protein of the extracellular region of human ANGPTL3 (17-170) and the mouse IgG2aFc fragment
# T1 chain: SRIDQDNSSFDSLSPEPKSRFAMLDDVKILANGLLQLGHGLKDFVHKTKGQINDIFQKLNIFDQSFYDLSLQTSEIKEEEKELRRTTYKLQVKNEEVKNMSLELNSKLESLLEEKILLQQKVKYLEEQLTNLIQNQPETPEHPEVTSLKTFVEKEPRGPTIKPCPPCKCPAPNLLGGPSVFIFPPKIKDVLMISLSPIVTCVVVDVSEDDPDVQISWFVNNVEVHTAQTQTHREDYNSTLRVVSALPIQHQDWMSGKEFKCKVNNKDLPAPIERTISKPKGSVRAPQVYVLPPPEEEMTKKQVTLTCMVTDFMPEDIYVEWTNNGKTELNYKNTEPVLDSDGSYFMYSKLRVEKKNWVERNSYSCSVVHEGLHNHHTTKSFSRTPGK
# T2: mouse ANGPTL3(17-455)-His (mouse, UniProt Q9R182 17-455, biotin-labelled in the ELISA and HTRF assays (sites not given))
# T2 construct: also called full-length mouse ANGPTL3
# T2 sequence: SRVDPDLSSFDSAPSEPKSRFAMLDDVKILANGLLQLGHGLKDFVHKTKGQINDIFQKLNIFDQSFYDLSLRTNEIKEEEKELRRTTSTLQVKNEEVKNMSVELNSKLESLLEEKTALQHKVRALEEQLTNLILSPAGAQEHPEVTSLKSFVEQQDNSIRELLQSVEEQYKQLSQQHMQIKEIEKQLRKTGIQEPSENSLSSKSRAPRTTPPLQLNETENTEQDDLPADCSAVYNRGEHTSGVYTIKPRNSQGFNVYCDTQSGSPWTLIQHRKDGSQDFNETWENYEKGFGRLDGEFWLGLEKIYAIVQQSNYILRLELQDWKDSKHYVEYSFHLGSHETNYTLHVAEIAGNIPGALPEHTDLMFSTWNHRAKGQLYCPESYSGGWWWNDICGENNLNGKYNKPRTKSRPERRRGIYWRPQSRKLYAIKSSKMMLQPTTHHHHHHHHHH
# T3: cynomolgus monkey ANGPTL3(17-460)-His (cynomolgus monkey, UniProt Q9Y5C1 17-460 (human entry), biotin-labelled in the ELISA and HTRF assays (sites not given))
# T3 construct: also called full-length cynomolgus monkey ANGPTL3; Cyno ANGPTL3
# T3 chain: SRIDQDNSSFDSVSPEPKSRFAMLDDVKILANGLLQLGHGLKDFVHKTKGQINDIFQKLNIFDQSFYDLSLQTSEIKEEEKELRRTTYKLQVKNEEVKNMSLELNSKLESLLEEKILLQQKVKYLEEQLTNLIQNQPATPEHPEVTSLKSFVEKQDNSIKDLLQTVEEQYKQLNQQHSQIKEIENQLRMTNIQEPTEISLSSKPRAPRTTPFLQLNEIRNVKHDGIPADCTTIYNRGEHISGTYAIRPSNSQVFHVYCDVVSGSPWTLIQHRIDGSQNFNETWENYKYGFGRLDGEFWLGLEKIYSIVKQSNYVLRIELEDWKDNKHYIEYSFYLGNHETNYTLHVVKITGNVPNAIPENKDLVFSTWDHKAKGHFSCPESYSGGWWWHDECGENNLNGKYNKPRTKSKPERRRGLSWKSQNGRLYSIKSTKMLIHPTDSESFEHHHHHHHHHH
# Legend:
# [1] = target: T1, human ANGPTL3(17-170)-mFc; assay: ELISA; human ANGPTL3(17-170)-mFc captured by coated goat anti-mouse IgG
# Procedure: The binding activity of the anti-ANGPTL3 antibody to the ANGPTL3 antigen was tested by an ELISA assay. The ANGPTL3 protein (human ANGPTL3(17-170)-mFc) was immobilized on a 96-well microplate by binding to the goat anti-mouse IgG coated on the microplate, and the binding activity of the antibody to the ANGPTL3 was determined according to the intensity of the signal after the antibody was added.
# Goat anti-mouse IgG (Sigma, M3534-1ML) was diluted to a concentration of 2 μg/mL with PBS buffer (Shanghai BasalMedia, B320, pH 7.4), added to a 96-well microplate (Corning, CLS3590-100EA) at 50 μL/well, and then incubated in an incubator at 37° C. for 3 h or incubated at 4° C. overnight (16-18 h). After the liquid was discarded, a PBS-diluted 5% skim milk (BD, 232100) blocking solution was added at 250 μL/well, and the mixture was incubated in an incubator at 37° C. for 3 h or incubated at 4° C. overnight (16-18 h) for blocking. After the blocking was finished, the blocking solution was discarded and the plate was washed 3 times with PBST buffer (pH 7.4 PBS containing 0.05% Tween-20), and then human ANGPTL3(17-170)-mFc (with sequence set forth in SEQ ID NO: 3) diluted to 0.5 μg/mL with a sample diluent (pH 7.4 PBS containing 1% BSA) was added at 50 μL/well. The mixture was incubated in an incubator at 37° C. for 2 h. After the incubation was finished, the reaction solution in the microplate was discarded. The plate was washed 3 times with PBST, and then a test antibody that was diluted with a sample diluent to different concentrations was added at 50 μL/well. The mixture was incubated in an incubator at 37° C. for 2 h. After the incubation was finished, the plate was washed 3 times with PBST, and a goat anti-human secondary antibody (Jackson Immuno Research, 109-035-003) that was diluted with the sample diluent was added at 50 μL/well. The mixture was incubated at 37° C. for 1 h.
# [2] = target: T2, mouse ANGPTL3(17-455)-His; assay: SPR (Biacore T200); antibody captured on Protein A chip, antigen in flow; 1:1 Langmuir fit
# Excerpt: (§1) Biacore was used to determine the affinity of the test anti-ANGPTL3 antibodies for human, monkey, rat and mouse ANGPTL3, and the method is as follows:
# (§2) Reaction signals were detected in real time using a Biacore T200 instrument to obtain association and dissociation curves. After each cycle of dissociation was completed, the biochip was washed and regenerated using a glycine-hydrochloric acid regeneration solution (Cat. # BR-1003-54, GE, pH 1.5). The running buffer for the experiment was 1×HBS-EP buffer (Cat. # BR-1001-88, GE). The data obtained from the experiment were fitted with the (1:1) Langmuir model using GE Biacore T200 evaluation software (version 3.0) to obtain affinity values.
# [3] = target: T3, cynomolgus monkey ANGPTL3(17-460)-His; assay: as above
# Excerpt: as §1, §2
Binder,EC50 [1] [nM],Kd [2] [nM],koff [2] [s⁻¹],kon [2] [M⁻¹ s⁻¹],Kd [3] [nM],koff [3] [s⁻¹],kon [3] [M⁻¹ s⁻¹]
"P3G (antibody, human IgG4 S228P, kappa, V domains shown, also called anti-ANGPTL3 antibody P3G; P3 (variable regions)) VH: QVQLVQSGAEVKKPGASVKVSCKSSGYTFTDYYLHWLRQAPGQGPEWMGWISPNSGGTSYAQKFQGRVTMTRDTSISTAYMELSSLRSDDTAVYYCARDIATLGNFFTYGMDVWGQGTTVTVSS VL: DIQLTQSPSSLSASVGDRVTITCRASQGIRNDLGWYQQKPGKAPKLLIYAASSLQSGVPSRFSGSGSGTDFTLTISSLQPEDFATYYCQQSYSSWTFGQGTKVEIKR",2.48,0.843,0.000827,981000,0.204,0.000847,4.15e+06
"P8G (antibody, human IgG4 S228P, kappa, V domains shown, also called anti-ANGPTL3 antibody P8G; P8 (variable regions)) VH: QVQLVQSGAEVKKPGASVKVSCKASGYTFTSYDINWVRQAPGQGLEWVGLINPRDDSTSYAQKFQGRVTMTRDTSTSTMYMELSSLRSEDTAVYFCARDLGSIREVLYYGMDVWGQGTTVTVSS VL: not shown",0.361,0.355,0.000345,970000,0.0593,0.000497,8.37e+06
"P8BG (antibody, human IgG4 S228P, kappa, V domains shown, also called anti-ANGPTL3 antibody P8BG; P8B (variable regions)) VH: QVQLVQSGAEVKKPGASVKVSCKASGYTFTSYDINWVRQAPGQGLEWVGLINPREDSTSYAQKFQGRVTMTRDTSTSTMYMELSSLRSEDTAVYFCARDLGSIREVLYYGMDVWGQGTTVTVSS VL: not shown",0.172,0.288,0.00042,1.46e+06,0.0769,0.000398,5.18e+06
